Drawing on patent US20190194280A1, this text covers IC50-based peak height for four molecules.

For one experiment, the target named is Serum samples collected at week 16 from patients immunized with UBI AD vaccine (UB-311). In words: comp. ELISA, serum P104. (An ELISA detects its analyte on a solid surface through an enzyme-linked reagent.)
SGYEVHHQKL [Aβ8-17 or APP 770 (S679-L688)] had an IC50-based peak height of 0.

Turning to HHQKLVFFAE [Aβ13-22 or APP 770 (H684-E693)], the IC50-based peak height stood at 0.

The molecule GYEVHHQKLV [Aβ9-18 or APP 770 (G680-V689)] registered an IC50-based peak height of 0.

For VHHQKLVFFA [Aβ12-21 or APP 770 (V683-A692)], the IC50-based peak height is 0.

Another experiment has the same target. Description: comp. ELISA, serum P105.
SGYEVHHQKL [Aβ8-17 or APP 770 (S679-L688)] returned an IC50-based peak height of 0.

In turn, HHQKLVFFAE [Aβ13-22 or APP 770 (H684-E693)] registered an IC50-based peak height of 0.

GYEVHHQKLV [Aβ9-18 or APP 770 (G680-V689)] displayed an IC50-based peak height of 0.

VHHQKLVFFA [Aβ12-21 or APP 770 (V683-A692)] registered an IC50-based peak height of 0.

The target is the same in another experiment. Description: comp. ELISA, serum P101.
The molecule SGYEVHHQKL [Aβ8-17 or APP 770 (S679-L688)] returned an IC50-based peak height of 0.

In the case of HHQKLVFFAE [Aβ13-22 or APP 770 (H684-E693)], the IC50-based peak height amounted to 0.

In the case of GYEVHHQKLV [Aβ9-18 or APP 770 (G680-V689)], the IC50-based peak height stood at 0.

On to VHHQKLVFFA [Aβ12-21 or APP 770 (V683-A692)], for which the IC50-based peak height amounted to 0.

A further experiment has the same target. Description: comp. ELISA, serum P108.
In turn, SGYEVHHQKL [Aβ8-17 or APP 770 (S679-L688)] yielded an IC50-based peak height of 0.

For HHQKLVFFAE [Aβ13-22 or APP 770 (H684-E693)], the IC50-based peak height was 0.

GYEVHHQKLV [Aβ9-18 or APP 770 (G680-V689)]: the IC50-based peak height stood at 0.

VHHQKLVFFA [Aβ12-21 or APP 770 (V683-A692)] returned an IC50-based peak height of 0.

The next experiment shares this target. Description: comp. ELISA, serum P109.
On to SGYEVHHQKL [Aβ8-17 or APP 770 (S679-L688)], for which the IC50-based peak height turned out to be 0.

Molecule HHQKLVFFAE [Aβ13-22 or APP 770 (H684-E693)] showed an IC50-based peak height of 0.

In turn, GYEVHHQKLV [Aβ9-18 or APP 770 (G680-V689)] gave an IC50-based peak height of 0.

VHHQKLVFFA [Aβ12-21 or APP 770 (V683-A692)] showed an IC50-based peak height of 0.

The target is the same in a further experiment. In words: comp. ELISA, serum P210.
In turn, SGYEVHHQKL [Aβ8-17 or APP 770 (S679-L688)] returned an IC50-based peak height of 0.

Regarding HHQKLVFFAE [Aβ13-22 or APP 770 (H684-E693)], the IC50-based peak height worked out at 0.

Take GYEVHHQKLV [Aβ9-18 or APP 770 (G680-V689)]: the IC50-based peak height stood at 0.

For the molecule VHHQKLVFFA [Aβ12-21 or APP 770 (V683-A692)], the IC50-based peak height came out at 0.

A further experiment has the same target. Description: comp. ELISA, serum P107.
SGYEVHHQKL [Aβ8-17 or APP 770 (S679-L688)] displayed an IC50-based peak height of 0.

HHQKLVFFAE [Aβ13-22 or APP 770 (H684-E693)] returned an IC50-based peak height of 0.

GYEVHHQKLV [Aβ9-18 or APP 770 (G680-V689)] came in with an IC50-based peak height of 0.

The molecule VHHQKLVFFA [Aβ12-21 or APP 770 (V683-A692)] returned an IC50-based peak height of 0.

For another experiment the target is unchanged. Description: comp. ELISA, serum P106.
SGYEVHHQKL [Aβ8-17 or APP 770 (S679-L688)] had an IC50-based peak height of 0.

For HHQKLVFFAE [Aβ13-22 or APP 770 (H684-E693)], the IC50-based peak height worked out at 0.

Take GYEVHHQKLV [Aβ9-18 or APP 770 (G680-V689)]: the IC50-based peak height is 0.

In turn, VHHQKLVFFA [Aβ12-21 or APP 770 (V683-A692)] came in with an IC50-based peak height of 0.

For the next experiment the target is unchanged. In words: comp. ELISA, serum P207.
SGYEVHHQKL [Aβ8-17 or APP 770 (S679-L688)] had an IC50-based peak height of 0.

Consider HHQKLVFFAE [Aβ13-22 or APP 770 (H684-E693)], for which the IC50-based peak height turned out to be 0.

Molecule GYEVHHQKLV [Aβ9-18 or APP 770 (G680-V689)] gave an IC50-based peak height of 16.

VHHQKLVFFA [Aβ12-21 or APP 770 (V683-A692)] showed an IC50-based peak height of 27.

Another experiment shares this target. Description: comp. ELISA, serum P204.
As for SGYEVHHQKL [Aβ8-17 or APP 770 (S679-L688)], the IC50-based peak height was 0.

HHQKLVFFAE [Aβ13-22 or APP 770 (H684-E693)] returned an IC50-based peak height of 0.

Turning to GYEVHHQKLV [Aβ9-18 or APP 770 (G680-V689)], the IC50-based peak height turned out to be 0.

Turning to VHHQKLVFFA [Aβ12-21 or APP 770 (V683-A692)], the IC50-based peak height was 0.

The target is the same in the next experiment. Description: comp. ELISA, serum P208.
Molecule SGYEVHHQKL [Aβ8-17 or APP 770 (S679-L688)] registered an IC50-based peak height of 0.

Turning to HHQKLVFFAE [Aβ13-22 or APP 770 (H684-E693)], the IC50-based peak height was found to be 0.

The molecule GYEVHHQKLV [Aβ9-18 or APP 770 (G680-V689)] displayed an IC50-based peak height of 0.

In turn, VHHQKLVFFA [Aβ12-21 or APP 770 (V683-A692)] had an IC50-based peak height of 0.

The next experiment shares this target. Description: comp. ELISA, serum P205.
SGYEVHHQKL [Aβ8-17 or APP 770 (S679-L688)]: the IC50-based peak height came to 0.

HHQKLVFFAE [Aβ13-22 or APP 770 (H684-E693)] came in with an IC50-based peak height of 0.

The molecule GYEVHHQKLV [Aβ9-18 or APP 770 (G680-V689)] gave an IC50-based peak height of 0.

Regarding VHHQKLVFFA [Aβ12-21 or APP 770 (V683-A692)], the IC50-based peak height came to 0.

A further experiment shares this target. Description: comp. ELISA, serum P103.
The molecule SGYEVHHQKL [Aβ8-17 or APP 770 (S679-L688)] yielded an IC50-based peak height of 0.

In turn, HHQKLVFFAE [Aβ13-22 or APP 770 (H684-E693)] came in with an IC50-based peak height of 0.

In the case of GYEVHHQKLV [Aβ9-18 or APP 770 (G680-V689)], the IC50-based peak height came to 0.

Turning to VHHQKLVFFA [Aβ12-21 or APP 770 (V683-A692)], the IC50-based peak height is 0.

Another experiment has the same target. In words: comp. ELISA, serum P203.
SGYEVHHQKL [Aβ8-17 or APP 770 (S679-L688)]: the IC50-based peak height was 0.

In the case of HHQKLVFFAE [Aβ13-22 or APP 770 (H684-E693)], the IC50-based peak height is 0.

For the molecule GYEVHHQKLV [Aβ9-18 or APP 770 (G680-V689)], the IC50-based peak height was determined as 0.

VHHQKLVFFA [Aβ12-21 or APP 770 (V683-A692)]: the IC50-based peak height came out at 0.

A further experiment has the same target. Description: comp. ELISA, serum P102.
Consider SGYEVHHQKL [Aβ8-17 or APP 770 (S679-L688)], for which the IC50-based peak height amounted to 0.

In the case of HHQKLVFFAE [Aβ13-22 or APP 770 (H684-E693)], the IC50-based peak height is 0.

As to GYEVHHQKLV [Aβ9-18 or APP 770 (G680-V689)], the IC50-based peak height worked out at 0.

VHHQKLVFFA [Aβ12-21 or APP 770 (V683-A692)] came in with an IC50-based peak height of 0.

The target is the same in a further experiment. In words: comp. ELISA, serum P202.
As for SGYEVHHQKL [Aβ8-17 or APP 770 (S679-L688)], the IC50-based peak height came out at 0.

For the molecule HHQKLVFFAE [Aβ13-22 or APP 770 (H684-E693)], the IC50-based peak height is 0.

As to GYEVHHQKLV [Aβ9-18 or APP 770 (G680-V689)], the IC50-based peak height is 0.

In turn, VHHQKLVFFA [Aβ12-21 or APP 770 (V683-A692)] yielded an IC50-based peak height of 0.

The target is the same in the next experiment. Description: comp. ELISA, serum P206.
On to SGYEVHHQKL [Aβ8-17 or APP 770 (S679-L688)], for which the IC50-based peak height worked out at 0.

HHQKLVFFAE [Aβ13-22 or APP 770 (H684-E693)] showed an IC50-based peak height of 0.

Turning to GYEVHHQKLV [Aβ9-18 or APP 770 (G680-V689)], the IC50-based peak height was 0.

Turning to VHHQKLVFFA [Aβ12-21 or APP 770 (V683-A692)], the IC50-based peak height amounted to 0.

For another experiment the target is unchanged. In words: comp. ELISA, serum P201.
In the case of SGYEVHHQKL [Aβ8-17 or APP 770 (S679-L688)], the IC50-based peak height came out at 0.

HHQKLVFFAE [Aβ13-22 or APP 770 (H684-E693)] yielded an IC50-based peak height of 0.

GYEVHHQKLV [Aβ9-18 or APP 770 (G680-V689)] yielded an IC50-based peak height of 0.

In turn, VHHQKLVFFA [Aβ12-21 or APP 770 (V683-A692)] gave an IC50-based peak height of 0.

Another experiment shares this target. In words: comp. ELISA, serum P209.
Turning to SGYEVHHQKL [Aβ8-17 or APP 770 (S679-L688)], the IC50-based peak height came out at 0.

Molecule HHQKLVFFAE [Aβ13-22 or APP 770 (H684-E693)] registered an IC50-based peak height of 0.

Molecule GYEVHHQKLV [Aβ9-18 or APP 770 (G680-V689)] came in with an IC50-based peak height of 0.

With VHHQKLVFFA [Aβ12-21 or APP 770 (V683-A692)], the IC50-based peak height came to 0.
